Reference: US20220242962A1

Legend:
[1] = target: Full-length Cyno OX40 (cynomolgus monkey); assay: flow cytometry (GUAVA Easycyte), antibody at 1:30 dilution, CHO clone OXF004a_11H7 expressing cynomolgus OX40
[2] = target: Full-length Human OX40 (human) (UniProt P43489); assay: flow cytometry (GUAVA Easycyte), antibody at 1:30 dilution, CHO clone OXF001a_9G10 expressing human OX40
[3] = target: Full-length Human OX40 (human) (UniProt P43489); assay: flow cytometry (GUAVA Easycyte), antibody at 1:30 dilution, CHO clone OXF001a_6B1 expressing human OX40

Full-length Human OX40 (human), sequence (P43489 29-277): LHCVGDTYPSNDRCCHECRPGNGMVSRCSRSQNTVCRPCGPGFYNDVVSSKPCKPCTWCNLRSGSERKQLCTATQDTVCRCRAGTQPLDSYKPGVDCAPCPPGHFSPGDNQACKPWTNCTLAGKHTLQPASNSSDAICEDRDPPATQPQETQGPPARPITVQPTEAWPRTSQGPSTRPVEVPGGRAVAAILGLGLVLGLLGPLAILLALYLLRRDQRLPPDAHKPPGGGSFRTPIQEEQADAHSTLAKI
Full-length Cyno OX40 (cynomolgus monkey), sequence (P43489 other isoform, or with tags, fused parts or gaps): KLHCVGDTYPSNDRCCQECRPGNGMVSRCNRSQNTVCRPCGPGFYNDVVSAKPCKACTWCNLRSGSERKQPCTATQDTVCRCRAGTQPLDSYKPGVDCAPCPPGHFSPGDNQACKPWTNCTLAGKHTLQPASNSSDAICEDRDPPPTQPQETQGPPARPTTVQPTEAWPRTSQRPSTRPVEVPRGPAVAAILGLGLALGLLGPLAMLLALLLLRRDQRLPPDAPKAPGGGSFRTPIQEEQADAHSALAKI

For “antibody to human OX40 (clone L106, BD Biosciences)”, the MFI [1] was 456, the MFI [2] was 230 and the MFI [3] was 211.
